One molecule from publication PMC6003625 (Journal of molecular biology, 2018) can be followed below.

By Kd is commonly meant a measure of binding affinity in units of concentration. Lower therefore signals tighter binding.

The target in this assay is Nup159-Dbp5-Mg2+mantADP complex (S. cerevisiae | , UniProt P20449 1-482; P40477 1-1460). Nature of the assay: stopped-flow kinetics of mantADP dissociation.
Sequence of Nup159-Dbp5-Mg2+mantADP complex (P20449 whole entry, chain 1 of 2): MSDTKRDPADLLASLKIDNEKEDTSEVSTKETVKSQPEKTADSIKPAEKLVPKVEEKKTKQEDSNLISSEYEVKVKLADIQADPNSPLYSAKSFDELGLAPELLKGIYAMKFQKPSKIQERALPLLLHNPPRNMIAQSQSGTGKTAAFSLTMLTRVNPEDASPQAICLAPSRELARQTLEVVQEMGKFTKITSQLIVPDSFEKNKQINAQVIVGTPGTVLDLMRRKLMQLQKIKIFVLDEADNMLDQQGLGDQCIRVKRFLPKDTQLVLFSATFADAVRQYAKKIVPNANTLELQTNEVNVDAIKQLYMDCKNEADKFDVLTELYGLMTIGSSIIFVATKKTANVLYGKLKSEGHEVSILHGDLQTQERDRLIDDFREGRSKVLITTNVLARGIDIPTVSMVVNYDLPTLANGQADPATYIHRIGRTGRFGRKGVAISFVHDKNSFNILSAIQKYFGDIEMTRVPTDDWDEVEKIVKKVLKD
Sequence of Nup159-Dbp5-Mg2+mantADP complex (P40477 whole entry, chain 2 of 2): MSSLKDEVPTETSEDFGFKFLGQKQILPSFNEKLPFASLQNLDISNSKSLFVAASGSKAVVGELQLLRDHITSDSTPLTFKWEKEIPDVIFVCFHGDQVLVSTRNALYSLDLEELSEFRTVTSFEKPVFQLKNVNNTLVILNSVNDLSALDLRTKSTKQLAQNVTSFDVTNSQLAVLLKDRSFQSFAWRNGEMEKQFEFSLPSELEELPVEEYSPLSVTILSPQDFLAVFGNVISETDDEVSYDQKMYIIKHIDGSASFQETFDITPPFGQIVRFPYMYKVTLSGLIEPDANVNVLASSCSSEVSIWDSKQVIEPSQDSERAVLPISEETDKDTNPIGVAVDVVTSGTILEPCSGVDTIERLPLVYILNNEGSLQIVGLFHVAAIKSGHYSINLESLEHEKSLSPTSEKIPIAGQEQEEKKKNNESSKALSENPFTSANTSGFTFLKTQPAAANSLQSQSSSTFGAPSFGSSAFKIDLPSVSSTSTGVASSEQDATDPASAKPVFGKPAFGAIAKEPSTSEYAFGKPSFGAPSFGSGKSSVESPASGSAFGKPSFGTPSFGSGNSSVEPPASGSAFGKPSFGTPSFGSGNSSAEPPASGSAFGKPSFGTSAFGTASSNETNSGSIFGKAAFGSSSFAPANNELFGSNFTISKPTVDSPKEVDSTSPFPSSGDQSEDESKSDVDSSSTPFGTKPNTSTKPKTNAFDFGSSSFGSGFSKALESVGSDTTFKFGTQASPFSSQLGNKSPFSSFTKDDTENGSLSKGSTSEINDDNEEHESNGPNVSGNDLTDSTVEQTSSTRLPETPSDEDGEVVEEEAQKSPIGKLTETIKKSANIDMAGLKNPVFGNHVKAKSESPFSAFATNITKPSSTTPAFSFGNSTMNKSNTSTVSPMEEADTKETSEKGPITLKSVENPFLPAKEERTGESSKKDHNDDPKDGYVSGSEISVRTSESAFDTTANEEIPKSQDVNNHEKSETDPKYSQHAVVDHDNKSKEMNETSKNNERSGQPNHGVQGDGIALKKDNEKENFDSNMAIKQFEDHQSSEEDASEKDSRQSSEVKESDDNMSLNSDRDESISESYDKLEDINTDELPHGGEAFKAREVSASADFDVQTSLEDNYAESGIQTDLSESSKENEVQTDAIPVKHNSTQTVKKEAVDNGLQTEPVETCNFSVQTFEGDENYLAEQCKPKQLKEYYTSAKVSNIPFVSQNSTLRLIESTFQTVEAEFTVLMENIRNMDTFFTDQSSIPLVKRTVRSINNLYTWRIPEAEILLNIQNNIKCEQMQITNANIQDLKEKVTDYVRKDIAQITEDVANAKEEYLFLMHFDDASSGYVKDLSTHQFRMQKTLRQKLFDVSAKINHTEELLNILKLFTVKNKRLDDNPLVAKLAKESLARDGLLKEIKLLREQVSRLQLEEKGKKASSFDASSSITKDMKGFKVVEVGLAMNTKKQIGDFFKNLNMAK

B1: Gle1 (natural protein, UniProt Q12315 1-538, looked up)
chain: MRFVFDEVFNSDTDSPEFEETCSTTSSTSSQCPTPEPSPAIKLPSFTKVGTKKLVNESVVILDPALENALRDLNLQSKLIPINEPIVAASSIIVPHSTNMPLPRASHSSLLDNAKNSNATAPLLEAIEESFQRKMQNLVLANQKEIQSIRENKRRVEEQRKRKEEEERKRKEAEEKAKREQELLRQKKDEEERKRKEAEAKLAQQKQEEERKKIEEQNEKERQLKKEHEAKLLQQKDKLGKAVTNFDKISKMFWHYKDKIAQIKQDIVLPIKKADVNVRNLLSRHKRKINPKFGQLTNSNQQLFKIQNELTQLINDTKGDSLAYHWILNFIAKAVVHQAETEVRVKPESALPLGKLTLYLLVQFPELQELFMARLVKKCPFVIGFTCEIDTEKGRQNMGWKRNNENKWEDNTSYDERMGGILSLFAIITRLQLPQEFITTTSHPFPIALSWHILARICNTPLNLITNTHFVILGSWWDAAAVQFLQAYGNQASKLLILIGEELTSRMAEKKYVGAARLRILLEAWQNNNMESFPEMSP
On to B1, for which the Kd came out at 1800 nM.
